No end group written: not given here. TAT = TAT cell-penetrating sequence fused at N-terminus
Columns and labels:
[1] = biological target: T1, ROCK1 (UniProt Q13464 1-553, limits assumed); test: SPR (BiaCore, proteins immobilized on CM-5 chip)
T1 construct: also called Rho-associated kinase 1; p160ROCK

[2] = biological target: T2, ROCK2 (UniProt O75116 5-554, limits assumed); test: SPR (BiaCore), protein immobilized on CM-5 chip, peptide as analyte; no ROCK-II sensorgram is drawn
T2 construct: also called ROKa

[3] = biological target: T1, ROCK1; test: SPR (BiaCore), protein immobilized on CM-5 chip, peptide as analyte; the sheet does not say whether ROCK-I is ROCK1-553 or ROCK1-415

T1 sequence (Q13464 1-553 limits assumed): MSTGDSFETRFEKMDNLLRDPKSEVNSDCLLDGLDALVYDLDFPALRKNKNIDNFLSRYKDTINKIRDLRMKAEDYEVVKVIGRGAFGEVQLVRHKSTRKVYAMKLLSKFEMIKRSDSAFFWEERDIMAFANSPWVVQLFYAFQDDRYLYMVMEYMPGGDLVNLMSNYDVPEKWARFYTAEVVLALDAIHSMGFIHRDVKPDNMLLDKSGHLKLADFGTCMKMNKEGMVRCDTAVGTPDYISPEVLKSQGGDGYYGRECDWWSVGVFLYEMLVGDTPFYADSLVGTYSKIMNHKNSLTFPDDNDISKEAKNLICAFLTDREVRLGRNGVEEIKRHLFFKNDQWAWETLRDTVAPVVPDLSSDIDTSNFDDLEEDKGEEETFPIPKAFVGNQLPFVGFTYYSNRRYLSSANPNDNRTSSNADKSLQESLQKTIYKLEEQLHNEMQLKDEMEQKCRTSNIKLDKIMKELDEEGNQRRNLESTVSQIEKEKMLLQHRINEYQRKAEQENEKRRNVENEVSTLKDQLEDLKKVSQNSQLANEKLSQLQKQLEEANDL
T2 sequence (O75116 5-554 limits assumed): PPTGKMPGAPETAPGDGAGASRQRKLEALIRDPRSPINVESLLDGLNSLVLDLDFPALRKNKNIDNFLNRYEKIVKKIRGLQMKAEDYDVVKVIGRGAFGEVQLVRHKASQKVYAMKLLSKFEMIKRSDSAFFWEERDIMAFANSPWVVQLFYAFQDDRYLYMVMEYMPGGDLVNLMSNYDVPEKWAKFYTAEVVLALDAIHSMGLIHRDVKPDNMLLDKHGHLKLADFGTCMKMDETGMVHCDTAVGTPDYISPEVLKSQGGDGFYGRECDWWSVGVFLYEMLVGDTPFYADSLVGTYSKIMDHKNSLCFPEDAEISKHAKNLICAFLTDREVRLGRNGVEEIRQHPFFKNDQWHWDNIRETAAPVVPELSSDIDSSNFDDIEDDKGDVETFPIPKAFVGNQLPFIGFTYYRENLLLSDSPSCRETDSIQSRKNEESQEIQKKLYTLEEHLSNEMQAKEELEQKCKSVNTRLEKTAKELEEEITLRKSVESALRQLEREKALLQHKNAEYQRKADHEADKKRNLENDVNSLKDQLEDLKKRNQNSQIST

ERTYSPSTAVRS (also called PD2w-5; Pep25-4) [peptide25 (ERTYSPSTAVRS)]
Kd [1]: 1500 nM

B1: TATpeptide25 (peptide25 with the TAT sequence fused at its N-terminal end) (peptide)
peptide: {TAT}-ERTYSPSTAVRS
notes: Synthetic peptide added to the cell culture medium
Kd [2]: 5150 nM
Kd [3]: 1450 nM

Source: patent US20170296617A1 (UNIVERSITY OF HOUSTON SYSTEM, published 2017)
